The values that follow come from IntAct's records for PubMed 17690245.

The target in one assay is cdk9_human CDK9 (UniProt P50750).
Another assay addresses ccnt1_human CCNT1 (UniProt O60563).

In the case of “Bromodomain-containing protein 4 (Homo sapiens) (from UniProt O60885-1) R1337P”, the “effect of a mutation on the interaction” value with cdk9_human CDK9 and with ccnt1_human CCNT1 was “disrupting interaction” each time.
